Assay [1] deals with cynomolgus HER3. Description: Kinetic binding analysis by surface plasmon resonance (ProteOn XPR36, IgG capture). The conditions noted are these: Cynomolgus antigen. The procedure:
(§1) Kinetic binding analysis of the purified humanized variants was performed on a ProteOn™ XPR36 biosensor (BioRad, USA) employing an IgG capture assay as described by Canziani et al. (Anal. Biochem. (2004) 325:301-307) that allows for measurement of antibody affinities of whole IgG molecules against soluble antigen under monovalent conditions. Briefly, approximately 5000 resonance units (RU) of a monoclonal mouse anti-human IgG Fc antibody (GE Healthcare, Denmark) was conjugated to a GLC chip surface (BioRad, USA) according to the manufacturer's instructions, followed by capture of individual antibodies of the invention or a negative control on the anti-Fc sensor surface. […] Next, 250 μl monovalent antigen (Sino Biologicals) was injected at a flow rate of 50 μl/min in serial threefold dilutions from 100 nM stock to generate response curves. The chip surface was regenerated between cycles by stripping the captured antibody/antigen complexes off the surface with a 10-second injection of 3 M MgCl2 (GE Healthcare, Denmark) repeated three times. Finally, binding responses were fitted to a Langmuir 1:1 binding model for calculation of the on-rate (kon or ka), off-rate (koff or kd) and affinity (KD) constants using double referencing.
On the technique in general: In SPR one partner is held on a chip, and binding of the other changes the refractive index at the surface.

Assay [2] concerns the target T1, human HER3 (Homo sapiens, UniProt P21860).
T1 construct: against soluble antigen under monovalent conditions; purchased Sino Biologicals
The description is as above. To be noted: Human antigen. How it is done:
as §1

Assay [3] relates to human or cynomolgus antigen (EGFR, HER2 or HER3). Description: Off-rate ranking of library hits (Octet QK384, Protein G biosensors). To be noted: expression supernatant, antigen at 200 nM, dissociation 20 min. In kind it is binding. How it is done:
Approximately 100 hits from each library that yielded an OD signal similar to or higher than that of the chimeric parent antibody were subjected to off-rate ranking using an Octet® QK384 instrument (Fortebio, Menlo Park, Calif.). Protein G biosensors (Fortebio) were used for capturing of antibody from 40 μl of expression supernatant followed by incubation with human or cynomolgus antigen at 200 nM. Human antigens were obtained from Sino Biologicals and cynomolgus antigens were produced in-house by transient expression in CHO or HEK293 cells (Koefoed et al. (2011) mAbs, 3:6, 1-12). Subsequently, the biosensors were incubated in PBS and the dissociation of antigen was recorded for 20 min to allow for a reliable determination of the dissociation rates. The responses were globally fitted to a Langmuir 1:1 binding model for calculation of dissociation constants.
(In BLI a coated tip is dipped into the sample, and binding shifts an interference pattern.)

In assay [4] the test system is EGFR, HER2 and HER3 from humans, cynomolgus monkeys and mice, human and murine HER4. The assay is described as follows: Cross-reactivity ELISA with coated antigens. The assay is classed as binding, mouse. The conditions noted are these: OD at 450 nm, 40 nM antibody, compared to chimeric parent. The procedure: Antibody-antigen binding was measured by ELISA with coated antigens. Human antigens were obtained from Sino Biologicals. All other antigens were produced in-house by transient expression in CHO or HEK293 cells. Chimeric and humanized antibodies, as well as an isotype control antibody, were incubated with the coated antigens at different concentrations. After wash, bound antibodies were detected by HRP-(horse radish peroxidase)-conjugated secondary antibodies. The OD signal from 40 nM antibody, measured at 450 nm using an ELISA reader, was scored from negative (−; OD<0.1) to strongly positive (+++; OD>2.5).
In general terms: In an ELISA, binding on a coated surface is turned into a signal by an enzyme label.

In assay [5] the test system is A431NS, H358, FaDu, OE19, BT474, MDA-MB-175 VII, MCF-7, N87, HN5, MFE-280 cancer cell lines. Description: Viability assay (WST-1) of humanized variants with partner antibody and of six-antibody mixtures. The assay is classed as cell-based, human. The conditions noted are these: two cell lines per variant, 96 hours. How it is done: Each humanized variant was tested in two cell lines and compared to the parental mixture of two chimeric antibodies and to a negative control antibody. […] In addition, a combination of six humanized variants (11294, 11302, 11249, 11145, 10738 and 11052; Humanized Pan-HER) was tested in a number of cell lines and compared to the combination of the six chimeric antibodies (1277, 1565, 4384, 4517, 5038 and 5082; Chimeric Pan-HER). The cell lines used, N87 gastric, FaDu head and neck, A431NS epidermoid, OE19 esophageal, HN5 head and neck, MDA-MB-175 VII breast and MFE-280 endometrial cancer, were selected on the basis of their previously determined dependency on the HER family receptors.
Prior to performing the viability assay the appropriate antibodies and antibody mixtures were diluted to a final total antibody concentration of 100 μg/ml in appropriate media supplemented with 0.5-2% FBS and 1% P/S (penicillin/streptomycin), yielding a final total antibody concentration of 50 μg/ml in the well containing the highest antibody concentration. A threefold serial dilution of the antibodies was then performed in a 384-well plate, followed by addition of relevant numbers of cells to the experimental wells. The MCF-7 cells were also stimulated with 1 nM heregulin beta. The plates were incubated for 4 days in a humidified incubator at 37° C. WST-1 reagent (Roche Applied Science, Mannheim, Germany) was added to the plates and the plates were incubated for 1-3 h at 37° C. Plates were transferred to an orbital plate shaker for one h and the absorbance was measured at 450 and 620 nm (reference wavelength) using an ELISA reader. The percentage of metabolically active cells (MAC) is calculated as a percentage of the untreated control as follows: […]

B1: antibody 11006: humanized anti-HER3 antibody from chimeric parent 5082; HC SEQ ID NO: 58, LC SEQ ID NO: 59 (antibody, V domains shown)
VH: QVQLQESGPGLVKPSQTLSLTCTVSGYSITSAYYWNWIRQHPGKGVEWMGYIGYSGRNTYNPSLKNRVTISRDTSKNQFSLKLSSVTAADTAVYYCSREGDYGYSDYWGQGTLVTVSS
VL: DIQMTQSPSSLSASVGDRVTVTCRASQDTNNYLNWYQQKPGKAVKLLIYYTSRLQSGVPSRFSGSGSGTDFTLTISSLQPEDFATYFCQQSETLPWTFGQGTKVEIK
Regarding B1, the ka is 1.5e+06 M⁻¹ s⁻¹ in assay [1] and 740000 M⁻¹ s⁻¹ in assay [2]. For the same molecule, the figures for the kd in assay [1] and in assay [2] were 8.7e-05 s⁻¹ and less than 2e-06 s⁻¹, respectively. Moreover, the “KD (estimated)” value in assay [2] (KD could not be determined due to a very slow off-rate) was “*KD could not be determined due to a very slow off-rate. Estimated to be in the picomolar range”. In addition, the “dissociation rate (off-rate ranking) compared to parent antibody” value in assay [3] is “improved dissociation rate”. Moreover, in assay [4], the “cross-reactivity pattern with HER family antigens” value is “binding to the same human and cynomolgus antigen combined with lack of binding to the mouse antigen or to other EGFR family receptors”. The “anti-proliferative effect in combination with partner antibody, compared to mixture of the two chimeric parent antibodies” value in assay [5] is on record as “highly similar anti-proliferative effects”.
